For assay [1], the target named is mEGFP tagged quaternary complexes.
The target is the same in assay [2]. The source holds these as a separate data set.

In assay [1], “sREACh-Cul5(N) (sREACh with F46L, Q69M, F223R, flexible linker, human Cul5 residues 2-384 with V341R, L345D)” came in with a percent quenching of 20%.
For “Cul5(N)-sREACh (human Cul5 residues 2-384 with V341R, L345D, C-terminally tagged with sREACh with F46L, Q69M, F223R)”, the percent decrease in fluorescence (FRET quench) in assay [2] turned out to be 8%.
